Earlier results on one substance are cited in publication PMC7618755.

For one data set, the target named is PD-L1 (Homo sapiens) (UniProt Q9NZQ7).
Another data set has as its target CD80 (Homo sapiens) (UniProt P33681).

Sequence of UniProt Q9NZQ7 (Q9NZQ7 19-238): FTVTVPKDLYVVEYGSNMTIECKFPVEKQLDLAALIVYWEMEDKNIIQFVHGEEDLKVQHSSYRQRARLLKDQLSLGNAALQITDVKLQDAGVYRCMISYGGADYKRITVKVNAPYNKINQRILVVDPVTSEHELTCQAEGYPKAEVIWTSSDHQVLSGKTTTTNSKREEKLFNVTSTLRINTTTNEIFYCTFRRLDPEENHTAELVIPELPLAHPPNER

For the substance CD80 (from UniProt P33681), the values for the Kd with PD-L1 (Homo sapiens) and with CD80 (Homo sapiens) were 20 µM and 35 µM, respectively.
